From publication PMC12866822

Target: pyruvate kinase M2 (PKM2), endogenous in RAW264.7 macrophages (mouse (endogenous in RAW264.7)) (UniProt P52480)
Test: cross-linking; lysates (RIPA buffer) of cells with endogenous PKM2 (RAW264.7, LX2, WRL68) treated with 1 µM DSS on ice for 1 h, SDS-PAGE, blot with PKM2 antibody; cells treated with the four compounds, or LPS with FE (12.5, 25, 50 µM) or DASA-58

pyruvate kinase M2 (PKM2), endogenous in RAW264.7 macrophages, P52480 1-531 (enzyme; other documents disagree on this pair), sequence (P52480 whole entry): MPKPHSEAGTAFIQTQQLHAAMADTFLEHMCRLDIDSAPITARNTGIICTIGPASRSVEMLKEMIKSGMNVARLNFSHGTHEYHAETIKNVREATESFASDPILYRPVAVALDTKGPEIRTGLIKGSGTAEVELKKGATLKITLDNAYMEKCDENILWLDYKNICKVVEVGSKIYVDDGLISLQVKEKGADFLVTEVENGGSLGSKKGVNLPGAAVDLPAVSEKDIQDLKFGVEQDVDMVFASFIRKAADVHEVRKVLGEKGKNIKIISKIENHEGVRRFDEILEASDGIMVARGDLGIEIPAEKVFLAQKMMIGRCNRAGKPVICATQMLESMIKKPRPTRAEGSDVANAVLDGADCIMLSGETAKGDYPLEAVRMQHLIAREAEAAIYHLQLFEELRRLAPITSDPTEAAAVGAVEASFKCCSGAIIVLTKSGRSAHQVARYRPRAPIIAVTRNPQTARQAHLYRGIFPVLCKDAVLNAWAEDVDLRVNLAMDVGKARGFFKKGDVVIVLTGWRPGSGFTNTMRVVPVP

## pyruvate kinase M2 (PKM2), endogenous in RAW264.7 macrophages, P52480 1-531 (enzyme; other documents disagree on this pair)
  stoichiometry N: 4
